The target of experiment [1] is Hsp27 GPG (isoleucine and valine of the IPV motif mutated to glycine) (human) (UniProt P04792). The experiment is described as follows: ITC; peptide (1 mM) titrated into a cell with Hsp27 proteins (100 µM); SEC buffer (50 mM sodium phosphate, 100 mM NaCl); 25 °C; one-site binding model.
The next experiment has as its target Hsp27 ΔNTD GPG (human) (UniProt P04792). The experiment is described as above.

As usually defined, the Kd is the constant that tells how readily two partners part at equilibrium. High values mean lower affinity, low ones higher affinity. The stoichiometry N is a count of units in the complex or per binding partner.

For the molecule EITIPVTHE [Hsp27 IPV H peptide (…)], in experiment [1], the dissociation constant Kd was 10 µM and the stoichiometry N is 0.2. The molecule further came in with a Kd with Hsp27 ΔNTD GPG (human) of 14.3 µM.

The record behind these values is article PMC6212398, “Competing protein-protein interactions regulate binding of Hsp27 to its client protein tau” (Nature Communications, 2018).
